# T1: CD32aH (FcγRIIaH) (UniProt P12318 34-217)
# T1 sequence (looked up): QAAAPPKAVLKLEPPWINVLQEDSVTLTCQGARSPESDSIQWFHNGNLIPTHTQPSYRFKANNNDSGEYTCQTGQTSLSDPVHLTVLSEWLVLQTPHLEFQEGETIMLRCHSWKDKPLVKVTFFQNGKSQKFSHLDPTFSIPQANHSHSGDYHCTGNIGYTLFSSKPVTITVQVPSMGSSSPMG
# Assays:
# [1] = molecular target: T2, FcγRIA (CD64) (UniProt P12314 16-292, limits assumed); assay: SPR (Biacore T200); mAb captured on Protein A, FcγRIA injected
# T2 construct: also called FcgRIa; FcγR1A
# Description: (§1) Specifically, FcγRIA was injected over anti-CD154 antibody pools immobilized onto a Protein A surface (2,000 Rus; Cat #Z02201 […] ®, Piscataway, N.J.), using PBST pH 7.4 (PBS with 0.05% Tween 20) as the running buffer. […] The regeneration was conducted with 1×60s 10 mM glycine pH 1.5, flow 30 μL/min.
# [2] = molecular target: T3, CD16aF (FcγRIIIaF) (UniProt P08637 17-208); assay: SPR (Biacore T200); mAb captured on Protein A, FcγR injected; steady-state affinity
# Description: The analytes were antigens in the FcγR panel (CD16aF, CD16aV, CD32aH, CD32bF; National Research Council, Canada), which were resuspended in PBST containing 3.4 mM EDTA and 0.05% Tween20.
# [3] = molecular target: T2, FcγRIA (CD64); assay: SPR (Biacore T200), FcγRIA binding; run with TNX06-TNX13
# [4] = molecular target: T2, FcγRIA (CD64); assay: SPR (Biacore T200); mAb captured on Protein A, FcγRIA injected; run with TNX01-TNX05
# Description: as §1
# [5] = molecular target: T2, FcγRIA (CD64); assay: SPR (Biacore T200), FcγRIA binding
# [6] = molecular target: T3, CD16aF (FcγRIIIaF); assay: SPR (Biacore T200), low-affinity FcγR panel
# [7] = molecular target: CD16aV (FcγRIIIaV) (UniProt P08637 17-208); assay: SPR (Biacore T200), low-affinity FcγR panel
# [8] = molecular target: T1, CD32aH (FcγRIIaH); assay: SPR (Biacore T200), low-affinity FcγR panel
# [9] = molecular target: T2, FcγRIA (CD64); assay: SPR (Biacore T200); mAb captured on Protein A, FcγRIA injected; steady-state end-point analysis
# Description: as §1
# T3 sequence (P08637 17-208): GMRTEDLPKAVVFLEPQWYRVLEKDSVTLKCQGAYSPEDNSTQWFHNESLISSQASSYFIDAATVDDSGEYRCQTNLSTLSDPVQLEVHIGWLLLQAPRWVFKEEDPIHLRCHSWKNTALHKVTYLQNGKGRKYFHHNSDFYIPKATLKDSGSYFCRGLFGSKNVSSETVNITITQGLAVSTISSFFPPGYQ
# T2 sequence (P12314 16-292 limits assumed): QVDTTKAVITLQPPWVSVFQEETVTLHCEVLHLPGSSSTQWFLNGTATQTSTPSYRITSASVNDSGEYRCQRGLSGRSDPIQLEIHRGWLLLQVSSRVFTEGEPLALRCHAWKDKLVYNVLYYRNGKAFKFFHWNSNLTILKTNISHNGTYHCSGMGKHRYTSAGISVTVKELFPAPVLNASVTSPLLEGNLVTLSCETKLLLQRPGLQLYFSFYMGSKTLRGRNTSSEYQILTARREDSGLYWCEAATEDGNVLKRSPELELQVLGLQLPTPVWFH
# Chain of CD16aV (FcγRIIIaV) (P08637 17-208 F176V): as the sequence (P08637 17-208) above, with F160V counted along it
binder,measurement,setting,value
"TNX05 anti-CD154 monoclonal antibody (antibody, human IgG4 S228P, kappa, also called hu5c8 mutated-IgG4 (IgG4 S228P/L235A)) heavy: not shown light: DIVLTQSPATLSVSPGERATISCRASQRVSSSTYSYMHWYQQKPGQPPKLLIKYASNLESGVPARFSGSGSGTDFTLTISSVEPEDFATYYCQHSWEIPPTFGGGTKLEIKRTVAAPSVFIFPPSDEQLKSGTASVVCLLNNFYPREAKVQWKVDNALQSGNSQESVTEQDSKDSTYSLSSTLTLSKADYEKHKVYACEVTHQGLSSPVTKSFNRGEC",fold loss of activity (against TNX02),[1],300 fold
same,binding result,[2],binds
"TNX02 anti-CD154 monoclonal antibody (antibody, human IgG1, kappa, also called IgG1 (wildtype)) heavy: not shown light: DIVLTQSPATLSVSPGERATISCRASQRVSSSTYSYMHWYQQKPGQPPKLLIKYASNLESGVPARFSGSGSGTDFTLTISSVEPEDFATYYCQHSWEIPPTFGGGTKLEIKRTVAAPSVFIFPPSDEQLKSGTASVVCLLNNFYPREAKVQWKVDNALQSGNSQESVTEQDSKDSTYSLSSTLTLSKADYEKHKVYACEVTHQGLSSPVTKSFNRGEC",binding result,[2],binds
same,Kd,[3],~0.04 nM
same,Kd,[4],~0.03 nM
"TNX10 anti-CD154 monoclonal antibody (antibody, human IgG1, kappa, L234A L235A, also called IgG1 (L234A, L235A)) heavy: not shown light: DIVLTQSPATLSVSPGERATISCRASQRVSSSTYSYMHWYQQKPGQPPKLLIKYASNLESGVPARFSGSGSGTDFTLTISSVEPEDFATYYCQHSWEIPPTFGGGTKLEIKRTVAAPSVFIFPPSDEQLKSGTASVVCLLNNFYPREAKVQWKVDNALQSGNSQESVTEQDSKDSTYSLSSTLTLSKADYEKHKVYACEVTHQGLSSPVTKSFNRGEC",fold weaker binding than TNX02,[5],1800 fold
same,binding result,[6],no binding
same,fold loss (against TNX02),[7],~12 fold
same,binding result,[8],no binding
"TNX06 anti-CD154 monoclonal antibody (antibody, human IgG4, kappa, also called IgG4 Wild Type) heavy: not shown light: DIVLTQSPATLSVSPGERATISCRASQRVSSSTYSYMHWYQQKPGQPPKLLIKYASNLESGVPARFSGSGSGTDFTLTISSVEPEDFATYYCQHSWEIPPTFGGGTKLEIKRTVAAPSVFIFPPSDEQLKSGTASVVCLLNNFYPREAKVQWKVDNALQSGNSQESVTEQDSKDSTYSLSSTLTLSKADYEKHKVYACEVTHQGLSSPVTKSFNRGEC",binding result,[5],binds
same,binding result,[6],binds
"TNX04 anti-CD154 monoclonal antibody (antibody, also called IgG1 (C220S, C226S, C229S, P238S)) heavy: not shown light: DIVLTQSPATLSVSPGERATISCRASQRVSSSTYSYMHWYQQKPGQPPKLLIKYASNLESGVPARFSGSGSGTDFTLTISSVEPEDFATYYCQHSWEIPPTFGGGTKLEIKRTVAAPSVFIFPPSDEQLKSGTASVVCLLNNFYPREAKVQWKVDNALQSGNSQESVTEQDSKDSTYSLSSTLTLSKADYEKHKVYACEVTHQGLSSPVTKSFNRGEC",fold loss of activity (against TNX02),[1],11 fold
same,binding result,[2],no binding (tested: 12 µM to 0.062 µM)
"TNX03 anti-CD154 monoclonal antibody (antibody, human IgG1, kappa, N297G, also called IgG1 (N297G)) heavy: not shown light: DIVLTQSPATLSVSPGERATISCRASQRVSSSTYSYMHWYQQKPGQPPKLLIKYASNLESGVPARFSGSGSGTDFTLTISSVEPEDFATYYCQHSWEIPPTFGGGTKLEIKRTVAAPSVFIFPPSDEQLKSGTASVVCLLNNFYPREAKVQWKVDNALQSGNSQESVTEQDSKDSTYSLSSTLTLSKADYEKHKVYACEVTHQGLSSPVTKSFNRGEC",fold loss of activity (against TNX02),[9],3000 fold
"TNX08 anti-CD154 monoclonal antibody (antibody, human IgG4 S228P, kappa, also called IgG4 (S228P, L235E)) heavy: not shown light: DIVLTQSPATLSVSPGERATISCRASQRVSSSTYSYMHWYQQKPGQPPKLLIKYASNLESGVPARFSGSGSGTDFTLTISSVEPEDFATYYCQHSWEIPPTFGGGTKLEIKRTVAAPSVFIFPPSDEQLKSGTASVVCLLNNFYPREAKVQWKVDNALQSGNSQESVTEQDSKDSTYSLSSTLTLSKADYEKHKVYACEVTHQGLSSPVTKSFNRGEC",fold weaker binding than TNX02,[5],2600 fold
same,binding result,[6],binds
"TNX11 anti-CD154 monoclonal antibody (antibody, human IgG1, kappa, also called IgG1 (C226S, C229S, P238S)) heavy: not shown light: DIVLTQSPATLSVSPGERATISCRASQRVSSSTYSYMHWYQQKPGQPPKLLIKYASNLESGVPARFSGSGSGTDFTLTISSVEPEDFATYYCQHSWEIPPTFGGGTKLEIKRTVAAPSVFIFPPSDEQLKSGTASVVCLLNNFYPREAKVQWKVDNALQSGNSQESVTEQDSKDSTYSLSSTLTLSKADYEKHKVYACEVTHQGLSSPVTKSFNRGEC",binding result,[5],binds
"TNX09 anti-CD154 monoclonal antibody (antibody, human IgG4 S228P, kappa, F234A L235A, also called IgG4 (S228P, F234A, L235A)) heavy: not shown light: DIVLTQSPATLSVSPGERATISCRASQRVSSSTYSYMHWYQQKPGQPPKLLIKYASNLESGVPARFSGSGSGTDFTLTISSVEPEDFATYYCQHSWEIPPTFGGGTKLEIKRTVAAPSVFIFPPSDEQLKSGTASVVCLLNNFYPREAKVQWKVDNALQSGNSQESVTEQDSKDSTYSLSSTLTLSKADYEKHKVYACEVTHQGLSSPVTKSFNRGEC",fold weaker binding than TNX02,[5],3800 fold
same,binding result,[6],no binding
same,fold loss (against TNX02),[7],~12 fold
same,binding result,[8],no binding
"TNX01 anti-CD154 monoclonal antibody (antibody, human IgG1, kappa, N297Q, also called IgG1 (N297Q)) heavy: not shown light: DIVLTQSPATLSVSPGERATISCRASQRVSSSTYSYMHWYQQKPGQPPKLLIKYASNLESGVPARFSGSGSGTDFTLTISSVEPEDFATYYCQHSWEIPPTFGGGTKLEIKRTVAAPSVFIFPPSDEQLKSGTASVVCLLNNFYPREAKVQWKVDNALQSGNSQESVTEQDSKDSTYSLSSTLTLSKADYEKHKVYACEVTHQGLSSPVTKSFNRGEC",fold loss of activity (against TNX02),[9],3000 fold
"TNX12 anti-CD154 monoclonal antibody (antibody, human IgG1, kappa, also called IgG1 (C229S, P238S)) heavy: not shown light: DIVLTQSPATLSVSPGERATISCRASQRVSSSTYSYMHWYQQKPGQPPKLLIKYASNLESGVPARFSGSGSGTDFTLTISSVEPEDFATYYCQHSWEIPPTFGGGTKLEIKRTVAAPSVFIFPPSDEQLKSGTASVVCLLNNFYPREAKVQWKVDNALQSGNSQESVTEQDSKDSTYSLSSTLTLSKADYEKHKVYACEVTHQGLSSPVTKSFNRGEC",binding result,[5],binds
same,binding result,[6],no binding
same,binding result,[7],no binding
same,binding result,[8],no binding
"TNX13 anti-CD154 monoclonal antibody (antibody, human IgG1, kappa, also called IgG1 (C226S, P238S)) heavy: not shown light: DIVLTQSPATLSVSPGERATISCRASQRVSSSTYSYMHWYQQKPGQPPKLLIKYASNLESGVPARFSGSGSGTDFTLTISSVEPEDFATYYCQHSWEIPPTFGGGTKLEIKRTVAAPSVFIFPPSDEQLKSGTASVVCLLNNFYPREAKVQWKVDNALQSGNSQESVTEQDSKDSTYSLSSTLTLSKADYEKHKVYACEVTHQGLSSPVTKSFNRGEC",binding result,[5],binds
same,binding result,[6],no binding
same,binding result,[7],no binding
same,fold loss of binding activity (against TNX02),[8],17 fold
